This is an account of results in the nanobody polyreactivity screen of Harvey et al. (2022).

This data set in a line: yeast display, Sf9 membrane polyspecificity reagent, FACS + sequencing; frameworks hold sequencing errors. Put shortly:
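After 36–48 hours of galactose induction, yeast (Saccharomyces cerevisiae BJ5465) displaying a synthetic nanobody library were stained at 4 °C for 1 hour with 10% biotinylated, detergent-solubilized Sf9 membrane reagent. Streptavidin microbeads enriched the stained cells before FACS sorting into low and high (top ~1%) gates on anti-HA and streptavidin fluorescence. Each clone's polyreactivity label reflects its gate of origin.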
As to “QVQLVESGGGLVQAGGSLRLSCAASGLTFRSYTMGWYRQAPGKERELVAAISSGGSTYYADSVKGRFTISRDNAKHTVYLKMNSRKPEDTAVYYCAAPRGHGKYYSWGQGTQVNVSS”, the “polyreactivity (PSR sort gate)” value is listed as “high polyreactivity”.
With “QVQLVESGGGLVQAGGSLRLSCAASGSIFRGYVMGWYRQAPGKERELVAAIRWRGGDTRYADSVKGRFTISRDNAKNTVYLQMNSLKPEDTAVYYCAAQYRKTQYQKKYDYWGQGTQVTVSS”, the “polyreactivity (PSR sort gate)” value is on record as “high polyreactivity”.
On to “QVQLVDSGGGLVQAGGSLRLSCAASGSIYNIYAMGWYRQAPGKERELVATITGIADSTYYADSVKGRFTISRDNAKNTVYLQMNSLKPEDTAVYYCAADKYVAEYDYWGQGTQVTVSS”, for which the “polyreactivity (PSR sort gate)” value is reported as “low polyreactivity”.
Turning to “QVQLVESGGGLVQAGGSLRLSCAASGFTFRSYAMGLYRQAPGKEREFVAAINGRSGSTYADSVKGRFTISRDNAKNTVYLQMISLKPEDTAVYYCAARVRRGSTQAQFYYWGQGTQVTVSS”, the “polyreactivity (PSR sort gate)” value is listed as “high polyreactivity”.
Turning to “QVQLVESGGGLVQAGGSLRLSCAASGITFNKYAMGWYRQAPGKERELVAAISSRGGSTYYADSVKGRFTISRDNAKNTVYLQMNSLKPEDTAVYYCNADVYRASNFDYWGQGTQVTVSS”, the “polyreactivity (PSR sort gate)” value is given as “high polyreactivity”.
On to “QVQLVESGGGLVQAGGSLRLSWAASGSSFFRNAMGGYSQAPGKERELVASISRSGGSTYYADSVKGRFTISRDNAKNTVYLQMNSLKPEDTAVSYCAKKPNTQTSYWYYYWGQGTQVTVST”, for which the “polyreactivity (PSR sort gate)” value is “high polyreactivity”.
As for “QVQLVESGGGLVQAGGSLRLSCAASGFIFSGNAMGWYRQAPGKERELVAAISSGGSTNYADSVKGRFTISRDNAKNTVYLQMNSLKPEDTAVYYCNADSPERIPVDLENDYWGQGTQVTVSS”, the “polyreactivity (PSR sort gate)” value is given as “low polyreactivity”.
In the case of “QVQRVESGGGLVQAGGSLRLSCAASGRIFEYYAMGWSRQAPGKERELVAAINTGGNTYYADSVKGRFTISRDNAKNTVYLQMNSLKPEDTAVYYCATYPIWYGGYLSGTDYDYWGQGTQVTVSS”, the “polyreactivity (PSR sort gate)” value was “low polyreactivity”.
Take “QVQLVESGGGLVQAGGSLRLSCAASGITFSGNAMGWYRPATGKERELVAGISRRGGSTYYADSVKGRFTISRDNAKNTVYLEMNSLKPEDTAVYYCARQFRRYYYAGYRYDYWGQGTQVTVSS”: the “polyreactivity (PSR sort gate)” value is “high polyreactivity”.
In the case of “QVQLVESGGGLVQAGGSLRLSCAASGRIFATNAMGLYRQAPGKERELVATITRSAGRTYYADSVKGRFTISRDNAKNTVYLQMNSLKPEDTAVYYCAASYWDTEPGYREYDYWGQGTQVTVSS”, the “polyreactivity (PSR sort gate)” value is given as “low polyreactivity”.
With “QVQLVESGGGLVPAGGSLRLSCAASGSTFCPYAMGWYRQAPGKERELVADITSSGGSTYYADSVKGRFTISRDNAKNTVYLQMNSLKPEDTAVYYCAADWSNLGAYDYWGQRTQVTVSS”, the “polyreactivity (PSR sort gate)” value is listed as “low polyreactivity”.
With “QVQLVESGGGVVQAGRSLRLSCAASGRLFVRNAMGWYRQAPGKDRELVAAITSVGDTYYADSVKGRFTISRDNAKNTVYLQMNSLKPVDTAVYYCAVYLWSGWGYPEYNYWGQGTQVTVSS”, the “polyreactivity (PSR sort gate)” value is “low polyreactivity”.
For the sequence “QVQLVDSGGGLVQAGGSLRLSSAASGRIFPRYAMGWDRQAPGKERELVATISSGGSTYYADSVKGRFTISRDNAKNTVYLQMISLKPEDTAVYYCATGRQVVRSYSEGDYWGQGTQVTVSS”, the “polyreactivity (PSR sort gate)” value is “low polyreactivity”.
As for “QVQLVESGGALVQAGGSLRLSCAASGFTFAFYAMGWYRQAPGKERELVAAISSRGGSTYYADSVKGRFTISRDNAKITVYLQMNSLKPEDTAVYYCAARGYYSVVEYYYWGQGTQVTVSS”, the “polyreactivity (PSR sort gate)” value is “high polyreactivity”.
As for “QVQLVESGGGLVQAGGSLRLSCAASGSTFSTYAMGWSRLAPGKERELVATISKRGGSTYYADSVKGRFTISRDNAKNTVYLQMNSLKPEDTAVYYCAARWQWLNGYYYWGQGTQVTVSS”, the “polyreactivity (PSR sort gate)” value is reported as “high polyreactivity”.
In the case of “QVQLVESGGGLVQAGGSLRLSCAASGRTFRLYAMGWSRPAPGKERELVAAISSGGSTYYADSVKGRFTISRDNAKNTVYLQMNSLKPEDTAVYYCFAWVYQFGYWGQGTQVTVSS”, the “polyreactivity (PSR sort gate)” value is “low polyreactivity”.
For the sequence “QVQLVESGGGLVQAGGSLRLSCAASGSTFSGYAMGWYRQAPGKERELVGAISSSGGRTNYADSVKGRFTISRDNAKNTVYLQMNSLKPEDTAVYYCASVGPRTEYSGYRYYYWGQGTQVTVSS”, the “polyreactivity (PSR sort gate)” value is listed as “high polyreactivity”.
“QVQLVESGGGLVQAGGSLRLSCAASGFIFEWYTMGWYRQAPGKERELVARISSDGSTTYADSVKGRFTISRDNAKNTVYLQMNSLKPEDTAVYYCAADVTYPGLKYIFDYWGQGTQVTVSS”: the “polyreactivity (PSR sort gate)” value was “low polyreactivity”.
Consider “QVQLVESGGGLVQAGGSLRLSCAASGRTFDYYAMGWYRQAPGKERELVAAISSSGGSTYYADSVKARFTISRDNAKNTVYLQMNSLKPEDTEVYYCNAYAYRFNHIHHIYTTVGEYWGQGTQVTVSS”, for which the “polyreactivity (PSR sort gate)” value is on record as “high polyreactivity”.
As to “QVQLVESGGGLVQAGGSLRLTCAASGRIFIGYAMGWYRQAPGKERELVAAISRNGDNTYYADSVKGRFTISRDNAKNTVYLQMISLKPEDSAVYYCAAVAYPRQWKLSYEDGSWGYDYWGQGTQVTVSS”, the “polyreactivity (PSR sort gate)” value is “low polyreactivity”.
For “QVQLVESGGGLVQAGGSLRLSCAASGSIFLYNAMGWYRQAPGKERELVAAISKSGGSTYYADSVKGRFTISRDNAKNTVYLQMNSLIPEDTAVYYCAAGYCRRIRYGSEYDYWGQGTQVTVSS”, the “polyreactivity (PSR sort gate)” value is reported as “low polyreactivity”.
In the case of “QVQLVESGGGIVQAGGSLRLSCAASGIIFRAYAMGWSRQAPGKDRELVAAISWSGGSTYYADSVKGRFTISRDNAKNTVYLQMNSLKPEDTAVYYCAARRWKGYYYWGQGTQVNVSS”, the “polyreactivity (PSR sort gate)” value is on record as “high polyreactivity”.
For “QVQLVESGGGLVQAGGSLRLSCAASGSTFYYYAMGWYRQAPGKESELVAAISPSGDSTYNADSVKGRFTISRENSKNTVYLQMNSLKPEDTAVYYFAAQYYFYPQEFDDWGQGTQVTVSS”, the “polyreactivity (PSR sort gate)” value is reported as “low polyreactivity”.
With “QVQLVESGGGLVQAGGSLRLSCAASGRTFGVYAMGWYRQAPWKERELVAGIRWRGGSTYYADSVKGRFTISRDNAKNTVYLQMNSLKPEDTAVYYCAADVYLVKYDYWGQGTQVTVSS”, the “polyreactivity (PSR sort gate)” value was “low polyreactivity”.
To “QVQLVESGGGLVQAGGSLRLSCAASGSTFFFNAMGWYRQAPGKERELVAAITGRSGSTYYADSVKGRFTISRDNAKNTVYLQMNSLKPEDTAVYYCAADFSPWRSDFDYWGQGTQVTVTS” belongs “low polyreactivity”.
On to “QVQLVESGGGLVQAGGSLRLSCAASGIIFERNAMGWYRQAPGKERELVAAITTSGDSTYYADSVKGRFTISRDNAKNTVYLQMNSLKPEDTAVYYCAVEGVIWSFWPYEYWGQGTQVTVSS”, for which the “polyreactivity (PSR sort gate)” value is on record as “high polyreactivity”.
As for “QVQLVESCGGLVQAGGSLRLSCAASGLTLGDNAMGLYRQAPGKERELVAAITSGSSTDYADSVKGRFTISRDNAKNTVYLQMNSLKPEDTAVYYCAKRIYRYQYRPENYWGQGTQVTVSS”, the “polyreactivity (PSR sort gate)” value is given as “low polyreactivity”.
Take “QVQLVESGGGLVQAGGSLRLSCAASGFTFKNYAMGWYRQAPGKEREFVATISSRGGSTYYADSVKGRFTISRDNAKNTVYLQMNSLKPEDTAVYYCATSRYLSRSSEYGYWGQGTQVTVSS”: the “polyreactivity (PSR sort gate)” value is “high polyreactivity”.
Take “QVQLLESGGGLVQAGGSLRLSCAASGSIFANNAMGWYRQSPGKEREMVAAIDWSAASTYYADSVKGRFTISRDNAKNTVYLQMNSLKPEDTAVYYWNRRGSGGESYRTTTGALGYWGQGTQVTVSS”: the “polyreactivity (PSR sort gate)” value is listed as “low polyreactivity”.
Turning to “QVQLVESGGGLVQAGGSLRLSCAASGFTFTDNAMGWSRQAPGKERELVAAISRGVGTNYADSVKGRFTISRDNAKNTVYLQMNSLKPEDTAVYYCAAGGRSVRYNYWGQGTQVTVSS”, the “polyreactivity (PSR sort gate)” value is reported as “high polyreactivity”.
In the case of “QVQLVESGGGLVQAGGSLRLSCAASGSTFPGNAMGWYRQAPGKESELVASISGGGDSTYYADSVKGRFTISRDNAKNTVYLQMISLKPEDTAVYYCAADYRQEPGYTGYYYWGQGTQVTVSS”, the “polyreactivity (PSR sort gate)” value is given as “low polyreactivity”.
To “QVHLVESGVGLVQARGSLRLSCASSGSTFGGNAMGWYRQAPGTERELVAAIDSGGGTNYADSVKGRFTIARDNAKNTVYLQMTSLKPEDTAVYYCNADWAVRSTQNSSSGHDYWGQATQVTVSS” belongs “low polyreactivity”; to “QVQLVESGGGLVQAGGSLRLSCAASGSIFVYNAMGWYRPAPGKERELVAGITLIGGSTYYADSVKGRFTISRDNAKNTVYLQMNSLKPEDTAVYYCAVLVVGSTTQDEPYFSGVEHDYWGQGTQVTVSS”, “low polyreactivity”.
Consider “QVQLVESGAGLVQAGGSLRLSCAASGRTFDKYAMGWYRQAPGKDRELVAAISGSGGRTYYADSVKGSFTISRDIAKNTVYLQMNSLKPEDTAFYYCAGDTGSYTYYYWGKGTQVTVSS”, for which the “polyreactivity (PSR sort gate)” value is recorded as “high polyreactivity”.
On to “QVQLVESGGGLVQEGGSLRLSCAASGIIFRWYAMGWYRQAPGKERELVAAITSDGNTYYADSVKGRFTISRDNAKNTVYLQMNSLKPVDTAVYYCAARLSYYSRMNYWGQGTQVTVSS”, for which the “polyreactivity (PSR sort gate)” value is reported as “high polyreactivity”.
Turning to “QVQLVESGGGLVQAGGSLRLSCAAYGRTLRGYAMGWYRQAPGKERELVAALTWSGGSTYYADSVKGRFTISRDHAKNTVYLQMNSLKPEDTAVYYCNARSYPDLYDYWGQGTQVTVSS”, the “polyreactivity (PSR sort gate)” value was “low polyreactivity”.
Consider “QVQLVESGGGLVQAGGSLRLSCAASGLTFFGYTMGWYRQAPGKEREFVADITWSGGSTYYADSVKGRFTISRDNAKNTVYLQMNSLKPEVTAVYYCAVAPPNWDPFVDDTYLMDYWGQGTQVTLSS”, for which the “polyreactivity (PSR sort gate)” value was “low polyreactivity”.
To “QVQLVESGGGLLQAGGSLRLSCADSGSTFLYKAMGCYIQAPGKEREFVAAISGSGGTTYYADSVKGRFTISRDNAKNTVYLQMNSLKPEDTAVYYCAVSQSWYWYYASDYWGQGTQVTVSS” belongs “low polyreactivity”; to “QVQLVESGGGLVQAPGSLRLSSAASGRIFNQYGMGWYRQAPGKERELVAAIRSGDSTNYADSVKGRFTISRDNAKNTVYLQMNSLKQEDSAVYYCARDRPGDYAGYYYWGKGTQVTVSS”, “low polyreactivity”.
Turning to “QVQLVESGGGLVQAGGSLRLSCADSGSTFWFYTMGWYRQAPGKERELVATITSGGSTNYADSVKGRFTISRDNAKNTVYLQMNSLKPEDTAVYYCAASSVLTNHDYWGQGTQVTVSS”, the “polyreactivity (PSR sort gate)” value is on record as “low polyreactivity”.
As for “QVQLVESGGCLVQAGGSLRLSCAASGRIFVYYAMGWYRQAPGKERELVAGISLSGGSTYYADSVKGRFTISRDNAKNTVYLQMYSLKPEDTAVYDSAIEVNAGYYVWYDYWGQGTQVTVSS”, the “polyreactivity (PSR sort gate)” value is on record as “low polyreactivity”.
